Source: patent US7252951B2, “Essential downstream component of the wingless signaling pathway and therapeutic and diagnostic applications based thereon” (Universität Zurich, priority 2000, dated 2007)

System: Arm-Tcf transcriptional activity
Assay: Tcf-reporter gene (TOPFLASH luciferase) assay in HEK293 cells
Assay type: cell-based
Details: 4 ng pcDNA3-ΔArm, 200 ng pcDNA3-EGFP-hLgs-peptide, 48 h after transfection, normalized for renilla luciferase
Protocol: FIG. 15(A) Effect of the expression of Lgs sequence homology 2-peptides on Tcf transcriptional activity. HEK293 cells at 50% confluence were plated into 24-well plates and transfected by a lipofection method. 240 ng of TOPFLASH luciferase reporter plasmid (Upstate biotechnology, New York, USA), 4 ng of pcDNA3-ΔArm, 200 ng of pcDNA3-EGFP-Lgs-peptide and 10 ng of a renilla luciferase reporter plasmid pRL-SV40 (Promega Corporation, Madison USA) were diluted into 25 μl of OPTI-MEM Medium (Life Technologies, Inc.) and combined with 1.2 μl of Lipofectamine (Life Technologies, Inc.) in 25 μl OPTI-MEM. After incubation for 20 min, 0.175 ml of OPTI-MEM was added and the mixtures were overlaid onto monolayers of cells. After culturing at 37° C./5% CO2 for 6 hr, 0.225 ml of OPTI-MEM containing 20% FCS was added to the cultures. […]
The effect of Lgs on Tcf transactivation activity can be performed in a cell culture system using a Tcf reporter gene. A Tcf-responsive reporter gene is a contruct which comprises a readily detectable or assayable gene such β-galactosidase, green fluorescent protein, chloramphenicol acetyltransferase or luciferase, linked in cis to a Tcf response element and a minimal promoter. […]

Molecule | Arm-Tcf transcriptional activity (Tcf-driven luciferase)
hLgs/Bcl9(199–392): Fragment (amino acids 199–392) of human Lgs/Bcl9 with a sequence homology domain, expressed as EGFP fusion from pcDNA3 (protein, left off: large carriers) TIVSFHIQNISNNKTERSTAPLNTQISALRNDPKPLPQQPPAPANQDQNSSQNTRLQPTPPIPAPAPKPAAPPRPLDRESPGVENKLIPSVGSPASSTPLPPDGTGPNSTPNNRAVTPVSQGSNSSSADPKAPPPPPVSSGEPPTLGENPDGLSQEQLEHRERSLQTLRDIQRMLFPDEKEFTGAQSGGPQQNP | strongly inhibit
hLgs/Bcl9(279–392): Fragment (amino acids 279–392) of human Lgs/Bcl9 with a sequence homology domain, expressed as EGFP fusion from pcDNA3 (protein, left off: large carriers) PGVENKLIPSVGSPASSTPLPPDGTGPNSTPNNRAVTPVSQGSNSSSADPKAPPPPPVSSGEPPTLGENPDGLSQEQLEHRERSLQTLRDIQRMLFPDEKEFTGAQSGGPQQNP | strongly inhibit
